Experimental findings from patent publication US20250042970A1 are described below.

Assay [1] has as its target human BAFF (Examples 21-23) (human) (UniProt Q9Y275). Nature of the assay: assay not given (Example 21).
In assay [2] the target is human APRIL (Examples 21-23) (human) (UniProt O75888). Nature of the assay: assay not given (Example 21).
Sequence of human APRIL (Examples 21-23) (human) (O75888 105-250 limits assumed): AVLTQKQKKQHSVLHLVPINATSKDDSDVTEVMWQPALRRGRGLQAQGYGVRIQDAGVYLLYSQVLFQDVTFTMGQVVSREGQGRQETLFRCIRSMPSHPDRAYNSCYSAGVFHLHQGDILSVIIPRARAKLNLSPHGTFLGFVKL

B1: Benlysta (antibody, INN chains, looked up, V domains shown)
VH: QVQLQQSGAEVKKPGSSVRVSCKASGGTFNNNAINWVRQAPGQGLEWMGGIIPMFGTAKYSQNFQGRVAITADESTGTASMELSSLRSEDTAVYYCARSRDLLLFPHHALSPWGRGTMVTVSS
VL: SSELTQDPAVSVALGQTVRVTCQGDSLRSYYASWYQQKPGQAPVLVIYGKNNRPSGIPDRFSGSSSGNTASLTITGAQAEDEADYYCSSRDSSGNHWVFGGGTELTVLG
B1 yielded a Kd in assay [1] of 0.0023 nM.

B2: BION-1301 (antibody, INN chains, looked up, V domains shown)
VH: QVQLVQSGAEVKKPGASVKVSCKASGYTFTDYTIHWVRQATGQGLEWMGWIYPLRGSINYAQKFQGRVTMTADKSISTVYMELSSLRSEDTAVYFCARHGAYYSNAFDYWGQGTLVTVSS
VL: EIVMTQSPATLSVSPGERATLSCRASESVDNDGIRFLHWYQQKPGQAPRLLIYRASTRATGIPARFSGSGSRTEFTLTISSLQSEDFAVYYCQQSNKDPYTFGGGTKVEIK
Molecule B2 showed a Kd in assay [2] of 0.4 nM.
